# Numbering of substitutions follows the chain as printed.
# B1: SOR3 (Stx2I OR3) (dsDNA)
# DNA 1: GGTTATTATGGGGGCGAATTCTTTGCGCTGCAAGTGC
# DNA 2: GCACTTGCAGCGCAAAGAATTCGCCCCCATAATAACC
# B2: VOR1 (VT2-SA OR1) (dsDNA)
# DNA 1: GGTTATTATGGAAGTACATATTGTATTTTGCAAGTGC
# DNA 2: GCACTTGCAAAATACAATATGTACTTCCATAATAACC
# B3: SOL2 (Stx2I OL2) (dsDNA)
# DNA 1: GGTTATTATGGTGTAATATTTTCTTACATGCAAGTGC
# DNA 2: GCACTTGCATGTAAGAAAATATTACACCATAATAACC
# B4: SOL3 (Stx2I OL3) (dsDNA)
# DNA 1: GGTTATTATGGGCTTCTTGAATAACAGCTGCAAGTGC
# DNA 2: GCACTTGCAGCTGTTATTCAAGAAGCCCATAATAACC
# B5: SOR1 (Stx2I OR1) (dsDNA)
# DNA 1: GGTTATTATGGTTTCAGTTCAACCATAATGCAAGTGC
# DNA 2: GCACTTGCATTATGGTTGAACTGAAACCATAATAACC
# B6: SOL1 (Stx2I OL1) (dsDNA)
# DNA 1: GGTTATTATGGCAATGATGATTTCATGCTGCAAGTGC
# DNA 2: GCACTTGCAGCATGAAATCATCATTGCCATAATAACC
# B7: LOR2 (lambda OR2) (dsDNA)
# DNA 1: GGTTATTATGGTAACACCGTGCGTGTTGTGCAAGTGC
# DNA 2: GCACTTGCACAACACGCACGGTGTTACCATAATAACC
# B8: SOR2 (Stx2I OR2) (dsDNA)
# DNA 1: GGTTATTATGGATGAGTACGATACTAAATGCAAGTGC
# DNA 2: GCACTTGCATTTAGTATCGTACTCATCCATAATAACC
# B9: VOR2 (VT2-SA OR2) (dsDNA)
# DNA 1: GGTTATTATGGATGCACAATGTGTATTTTGCAAGTGC
# DNA 2: GCACTTGCAAAATACACATTGTGCATCCATAATAACC
# B10: VOL2 (VT2-SA OL2) (dsDNA)
# DNA 1: GGTTATTATGGCAATACAATTTGTTCTATGCAAGTGC
# DNA 2: GCACTTGCATAGAACAAATTGTATTGCCATAATAACC
# B11: VOL3 (VT2-SA OL3) (dsDNA)
# DNA 1: GGTTATTATGGTACAACGCTTTGTATTTTGCAAGTGC
# DNA 2: GCACTTGCAAAATACAAAGCGTTGTACCATAATAACC
# B12: VOR3 (VT2-SA OR3) (dsDNA)
# DNA 1: GGTTATTATGGTATTACGCTCTGTACTGTGCAAGTGC
# DNA 2: GCACTTGCACAGTACAGAGCGTAATACCATAATAACC
# B13: VOL1 (VT2-SA OL1) (dsDNA)
# DNA 1: B12 DNA 1 with T14G, C19A, C21A, G28T
# DNA 2: B12 DNA 2 with C10A, G17T, G19T, A24C
# B14: LOL3 (lambda OL3) (dsDNA)
# DNA 1: GGTTATTATGGTATCACCGCAGATGGTTTGCAAGTGC
# DNA 2: GCACTTGCAAACCATCTGCGGTGATACCATAATAACC
# B15: LOR1 (lambda OR1) (dsDNA)
# DNA 1: GGTTATTATGGTACCTCTGGCGGTGATATGCAAGTGC
# DNA 2: GCACTTGCATATCACCGCCAGAGGTACCATAATAACC
# B16: LOR3 (lambda OR3) (dsDNA)
# DNA 1: GGTTATTATGGTATCACCGCAAGGGATATGCAAGTGC
# DNA 2: GCACTTGCATATCCCTTGCGGTGATACCATAATAACC
# B17: LOL1 (lambda OL1) (dsDNA)
# DNA 1: B16 DNA 1 with A21C, G24T, A26G
# DNA 2: B16 DNA 2 with T12C, C14A, T17G
# B18: LOL2 (lambda OL2) (dsDNA)
# DNA 1: B16 DNA 1 with T12C, T14A, A21C, G24A
# DNA 2: B16 DNA 2 with C14T, T17G, A24T, A26G
# Molecular target: T1, lambda CI repressor (Bacteriophage lambda, UniProt P03034 1-237)
# T1 sequence (P03034 whole entry): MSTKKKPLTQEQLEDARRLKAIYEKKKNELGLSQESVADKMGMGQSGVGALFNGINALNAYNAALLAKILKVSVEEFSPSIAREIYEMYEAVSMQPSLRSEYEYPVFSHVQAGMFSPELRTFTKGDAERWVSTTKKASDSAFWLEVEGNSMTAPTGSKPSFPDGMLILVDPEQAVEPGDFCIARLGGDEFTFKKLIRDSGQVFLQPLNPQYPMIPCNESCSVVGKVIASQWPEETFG
# Test: EMSA; apparent Kd; text gives error 3.10; EMSA: 10 mM HEPES, 150 mM NaCl, pH 7.4; 50 nM DNA, 0.4-40 uM CI; 20 min at room temperature; 10% polyacrylamide gel, 1x TBE pH 8.3, SYBR Safe stain
# Settings: protein: recombinant; tags: His-tag, TEV cleavage site with linker (pET 29b+); chain copies: 2; label: none (SYBR Safe stain)
row,Binder,Kd [µM]
1,B1,7.68 ± 3.09

# Molecular target: T1, lambda CI repressor
# Test: EMSA; apparent Kd; EMSA: 10 mM HEPES, 150 mM NaCl, pH 7.4; 50 nM DNA, 0.4-40 uM CI; 20 min at room temperature; 10% polyacrylamide gel, 1x TBE pH 8.3, SYBR Safe stain
# Settings: protein: recombinant; tags: His-tag, TEV cleavage site with linker (pET 29b+); chain copies: 2; label: none (SYBR Safe stain)
row,Binder,Kd [µM]
1,B2,5.15 ± 2.39
2,B3,3.68 ± 0.47
3,B4,4.26 ± 0.27
4,B5,7.27 ± 2.39
5,B6,7.11 ± 1.27
6,B7,1.55 ± 0.29
7,B8,7.67 ± 2.62
8,B9,6.39 ± 2.75
9,B10,4.02 ± 0.16
10,B11,3.67 ± 0.1
11,B12,4.41 ± 0.99
12,B13,5.37 ± 1.16
13,B14,1.21 ± 0.08
14,B15,0.35 ± 0.03
15,B16,3.07 ± 1.13
16,B17,0.21 ± 0.02
17,B18,1.5 ± 0.17
